# Assay results taken from US20200062856A1 (XDCEXPLORER SHANGHAI, published 2020).
# T1: human TPBG-hFc protein (human, UniProt Q13641 32-355)
# T1 construct: range 32-355; Expressed in HEK293 cells, purified on protein A; also called immunogen A; hFc tagged TPBG protein; not shown: human IgG Fc fragment of the pCpC vector
# T1 sequence (looked up): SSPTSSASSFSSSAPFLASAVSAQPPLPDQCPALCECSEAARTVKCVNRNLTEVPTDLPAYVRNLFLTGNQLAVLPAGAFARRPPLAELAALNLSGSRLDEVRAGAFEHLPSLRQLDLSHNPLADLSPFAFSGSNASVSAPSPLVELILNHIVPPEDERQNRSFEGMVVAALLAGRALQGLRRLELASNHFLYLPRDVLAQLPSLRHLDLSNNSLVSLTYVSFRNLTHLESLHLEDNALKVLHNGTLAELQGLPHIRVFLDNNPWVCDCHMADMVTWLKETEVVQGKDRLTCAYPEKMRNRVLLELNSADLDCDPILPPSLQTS
# T2: cynomolgus TPBG protein, full-length, on the cell surface (cynomolgus, UniProt Q4R8Y9 35-420)
# T2 construct: whole, on cells; also called cTPBG; CHOk1-cTPBG
# T2 sequence (looked up): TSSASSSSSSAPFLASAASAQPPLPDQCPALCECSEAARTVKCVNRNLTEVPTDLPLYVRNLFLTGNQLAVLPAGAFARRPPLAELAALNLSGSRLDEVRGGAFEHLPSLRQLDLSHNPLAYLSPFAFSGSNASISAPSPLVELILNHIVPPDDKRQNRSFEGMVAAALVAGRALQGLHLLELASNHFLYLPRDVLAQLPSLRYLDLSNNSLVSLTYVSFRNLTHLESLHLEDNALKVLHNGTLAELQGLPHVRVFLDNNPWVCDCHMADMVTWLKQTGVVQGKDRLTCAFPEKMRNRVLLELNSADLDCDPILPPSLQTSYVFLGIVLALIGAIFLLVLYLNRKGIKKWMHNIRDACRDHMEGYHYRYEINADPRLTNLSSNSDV
# T3: human TPBG protein, full-length, on the cell surface (human, UniProt Q13641 32-420)
# T3 construct: whole, on cells; Transfected HEK293 (293F-hTPBG clones) and CHO-k1 (CHOk1-hTPBG 3A2F1) cells; also used here for endogenous TPBG on the TPBG-positive tumour lines NCI-H1568, NCI-H1975 and MDA-MB-468 in the killing assays; also called hTPBG; 5T4
# T3 sequence (looked up): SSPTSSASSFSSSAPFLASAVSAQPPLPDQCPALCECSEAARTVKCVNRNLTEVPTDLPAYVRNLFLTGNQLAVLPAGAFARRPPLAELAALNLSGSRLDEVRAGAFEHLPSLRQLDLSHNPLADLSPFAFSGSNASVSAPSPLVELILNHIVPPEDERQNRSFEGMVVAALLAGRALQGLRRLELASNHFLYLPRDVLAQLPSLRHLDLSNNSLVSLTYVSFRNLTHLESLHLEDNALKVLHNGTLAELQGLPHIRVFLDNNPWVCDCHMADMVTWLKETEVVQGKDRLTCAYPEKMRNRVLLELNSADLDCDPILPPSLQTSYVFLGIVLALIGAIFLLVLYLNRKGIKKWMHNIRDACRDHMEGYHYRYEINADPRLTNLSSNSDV
# T4: mouse TPBG protein, full-length, on the cell surface (mouse, UniProt Q9Z0L0 32-426)
# T4 construct: whole, on cells; also called mTPBG; CHOk1-mTPBG
# T4 sequence (looked up): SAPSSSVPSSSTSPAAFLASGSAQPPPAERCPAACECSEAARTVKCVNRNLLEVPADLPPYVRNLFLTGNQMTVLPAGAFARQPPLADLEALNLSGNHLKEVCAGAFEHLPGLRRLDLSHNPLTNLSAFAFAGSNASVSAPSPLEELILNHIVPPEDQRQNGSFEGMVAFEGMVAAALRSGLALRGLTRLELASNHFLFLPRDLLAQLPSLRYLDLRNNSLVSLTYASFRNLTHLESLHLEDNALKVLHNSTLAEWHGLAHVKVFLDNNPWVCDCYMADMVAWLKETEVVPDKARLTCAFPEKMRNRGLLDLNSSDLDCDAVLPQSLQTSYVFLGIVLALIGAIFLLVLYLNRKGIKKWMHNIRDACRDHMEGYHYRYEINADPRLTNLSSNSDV
# What was measured:
# [1] = target: mouse TPBG protein, full-length, on the cell surface (mouse) (UniProt Q9Z0L0); assay: FACS, CHOk1-mTPBG 3A3 cells
# [2] = target: human TPBG protein, full-length, on the cell surface (human) (UniProt Q13641); assay: FACS, CHOk1-hTPBG 3A2F1 cells
# [3] = target: cynomolgus TPBG protein, full-length, on the cell surface (cynomolgus) (UniProt Q4R8Y9); assay: FACS, CHOk1-cTPBG 3F13G4 cells
# [4] = target: human TPBG protein, full-length, on the cell surface (human) (UniProt Q13641); assay: FACS, HEK293 clone 293F-hTPBG 4A8
# [5] = target: human TPBG protein, full-length, on the cell surface (human) (UniProt Q13641); assay: FACS, HEK293 clone 293F-hTPBG 4A9
# [6] = target: human TPBG protein, full-length, on the cell surface (human) (UniProt Q13641); assay: FACS, HEK293 clone 293F-hTPBG 4B9
# [7] = target: human TPBG protein, full-length, on the cell surface (human) (UniProt Q13641); assay: FACS, HEK293 clone 293F-hTPBG 4C3
# [8] = target: human TPBG protein, full-length, on the cell surface (human) (UniProt Q13641); assay: FACS, HEK293 clone 293F-hTPBG 4C5
# [9] = target: human TPBG protein, full-length, on the cell surface (human) (UniProt Q13641); assay: FACS, HEK293 clone 293F-hTPBG 4E1
# [10] = target: human TPBG protein, full-length, on the cell surface (human) (UniProt Q13641); assay: FACS, HEK293 clone 293F-hTPBG 4F9
# [11] = target: human TPBG protein, full-length, on the cell surface (human) (UniProt Q13641); assay: FACS, HEK293 clone 293F-hTPBG 4G1
# [12] = target: human TPBG protein, full-length, on the cell surface (human) (UniProt Q13641); assay: FACS, HEK293 clone 293F-hTPBG 4G6
# [13] = target: human TPBG protein, full-length, on the cell surface (human) (UniProt Q13641); assay: FACS, HEK293 clone 293F-hTPBG 5A9
# [14] = target: human TPBG protein, full-length, on the cell surface (human) (UniProt Q13641); assay: FACS, HEK293 clone 293F-hTPBG 5D4
# [15] = target: human TPBG protein, full-length, on the cell surface (human) (UniProt Q13641); assay: FACS, HEK293 clone 293F-hTPBG 5E5
# [16] = target: human TPBG protein, full-length, on the cell surface (human) (UniProt Q13641); assay: FACS, HEK293 clone 293F-hTPBG 5E6
# [17] = target: human TPBG protein, full-length, on the cell surface (human) (UniProt Q13641); assay: FACS, HEK293 clone 293F-hTPBG 5G8
# [18] = target: human TPBG protein, full-length, on the cell surface (human) (UniProt Q13641); assay: FACS, HEK293 clone 293F-hTPBG 5H6
# [19] = target: human TPBG protein, full-length, on the cell surface (human) (UniProt Q13641); assay: FACS, HEK293 clone 293F-hTPBG 4H12
# [20] = target: human TPBG protein, full-length, on the cell surface (human) (UniProt Q13641); assay: FACS, HEK293 clone 293F-hTPBG 5A11
# [21] = target: human TPBG protein, full-length, on the cell surface (human) (UniProt Q13641); assay: FACS, HEK293 clone 293F-hTPBG 5C12
# [22] = target: human TPBG protein, full-length, on the cell surface (human) (UniProt Q13641); assay: FACS, HEK293 clone 293F-hTPBG 5G11
# [23] = target: human TPBG protein, full-length, on the cell surface (human) (UniProt Q13641); assay: FACS, HEK293 clone 293F-hTPBG 4E1 (NO 8)
# human TPBG-hFc protein [24] = target: T1, human TPBG-hFc protein; assay: ELISA, coated human TPBG-hFc 1.0 ug/mL; control IgG at 2 nM
# human TPBG-hFc protein [25] = target: T1, human TPBG-hFc protein; assay: ELISA, coated human TPBG-hFc 1.0 ug/mL; control IgG at 20 nM
# human TPBG-hFc protein [26] = target: T1, human TPBG-hFc protein; assay: ELISA, coated human TPBG-hFc 1.0 ug/mL; control IgG at 0.2 nM
# human TPBG-hFc protein [27] = target: T1, human TPBG-hFc protein; assay: ELISA, coated human TPBG-hFc 1.0 ug/mL; control IgG at 200 nM
# human TPBG-hFc protein [28] = target: T1, human TPBG-hFc protein; assay: ELISA, coated human TPBG-hFc 1.0 ug/mL; control IgG at 0.02 nM
# human TPBG-hFc protein [29] = target: T1, human TPBG-hFc protein; assay: ELISA, coated human TPBG-hFc 1.0 ug/mL; control IgG at 0.002 nM
# human TPBG-hFc protein [30] = target: T1, human TPBG-hFc protein; assay: ELISA, coated human TPBG-hFc 1.0 ug/mL; control IgG at 0.0002 nM
# [31] = target: T2, cynomolgus TPBG protein, full-length, …; assay: FACS on CHOk1-cTPBG cells
# From the text: (§1) The stable cell lines CHOk1-hTPBG, CHOk1-cTPBG, CHOk1-mTPBG (i.e. the CHOk1-hTPBG 3A2F1, CHOk1-cTPBG 3F13G4 and CHOk1-mTPBG 3A3 shown in Table 6) and CHO-k1 cells were expanded to a 90% of confluency in T-75 cell culture flasks, and the culture medium were removed. Cells were then rinsed twice with HBSS buffer (Hanks Balanced Salt Solution, purchased from Invitrogen) and […] with enzyme-free cell dissociation buffer (Versene solution was purchased from Life technology) and harvested. Harvested cells were rinsed with HBSS buffer twice and counted before diluting with HBSS buffer to 2×10⁶ cells/mL, and 10% goat serum blocking buffer was then added, wherein the percentage is the mass percentage. Cells were incubated on ice for 30 min, and then washed twice with HBSS buffer by centrifugation. […] The plate was washed with the FACS buffer twice by centrifugation, and 100 μL per well of fluorescence (Alexa 488) labeled secondary antibody (purchased from Invitrogen) was then added and incubated on ice for 1 h. […] The results were measured and analyzed by FACS (FACS Calibur, purchased from BD). The data was analyzed by software (CellQuest) to obtain the mean fluorescence intensity (MFI) of the cells, follow by calculating EC50 value by software (GraphPad Prism) analysis and data fitting.
# [32] = target: T3, human TPBG protein, full-length, on the …; assay: FACS on CHOk1-hTPBG cells
# From the text: as §1
# [33] = target: T4, mouse TPBG protein, full-length, on the …; assay: FACS on CHOk1-mTPBG cells
# From the text: as §1
molecule,measurement,setting,value
mouse IgG (isotype control) (antibody),Cellular MFI,[1],2.38 MFI
same,Cellular MFI,[2],3.24 MFI
same,Cellular MFI,[3],2.66 MFI
same,Cellular MFI,[4],3.1 MFI
same,Cellular MFI,[5],6.3 MFI
same,Cellular MFI,[6],6.3 MFI
same,Cellular MFI,[7],3.2 MFI
same,Cellular MFI,[8],5.6 MFI
same,Cellular MFI,[9],5.2 MFI
same,Cellular MFI,[10],3.9 MFI
same,Cellular MFI,[11],4 MFI
same,Cellular MFI,[12],3.1 MFI
same,Cellular MFI,[13],5 MFI
same,Cellular MFI,[14],3 MFI
same,Cellular MFI,[15],5.6 MFI
same,Cellular MFI,[16],2.6 MFI
same,Cellular MFI,[17],6 MFI
same,Cellular MFI,[18],3 MFI
same,Cellular MFI,[19],4 MFI
same,Cellular MFI,[20],4.6 MFI
same,Cellular MFI,[21],3.7 MFI
same,Cellular MFI,[22],4.1 MFI
same,Cellular MFI,[23],4.8 MFI
same,OD450 nm,human TPBG-hFc protein [24],0.1 OD450 nm
same,OD450 nm,human TPBG-hFc protein [25],0.11 OD450 nm
same,OD450 nm,human TPBG-hFc protein [26],0.11 OD450 nm
same,OD450 nm,human TPBG-hFc protein [27],0.24 OD450 nm
same,OD450 nm,human TPBG-hFc protein [28],0.1 OD450 nm
same,OD450 nm,human TPBG-hFc protein [29],0.1 OD450 nm
same,OD450 nm,human TPBG-hFc protein [30],0.11 OD450 nm
"mouse anti-TPBG monoclonal antibody 28D4E6A9 (antibody, V domains shown, Mouse antibody purified from hybridoma supernatant; also called 28D4E6A9 (28D4 for short)) VH: DVQLVESGGGLVRPGGSLKLSCAASGFTFSNYVMSWARQSPEKRLEWVAEISTGGSHTYYSDTVTGRFTISRDNAKKALYLEMSSLRSEDTAIYYCIMFYYGSSYSMDYWGQGTSVTVSS VL: DIQMTQSTSSLSASLGDRITISCRASQDIRNYLNWYQQKPDGTVKLLIYHTSRLHSGVPSRFSGSGSGTDYSLTISNLEQEDIATYFCQQGDTLPLTFGAGTRLELK",EC50,[31],0.25 nM
same,EC50,[32],0.63 nM
same,binding result,[33],no binding
"mouse anti-TPBG monoclonal antibody 12B12C7C3 (antibody, V domains shown, Mouse antibody purified from hybridoma supernatant; also called 12B12C7C3 (12B12 for short)) VH: DVQLVESGGGLVQPGGSRKLSCAASGFTFSNFGMHWVRQAPEKGLEWVAYISSGSTSFYYADTVKGRFTISRDNPKNTLFLQMTSLRSEDTAMYYCSRTNSLLRGFFDAWGAGTTVTVSS VL: DIVLTQSPASLAVSLGQRATISCRASQSVSSSSYTYLHWYQQKPGQPPKLLIKSASNLESGVPARFSGTGSGTDFTLNIHPVEEEDTATYYCQHSWEIPLTFGAGTKLELK",EC50,[31],0.59 nM
same,EC50,[32],0.65 nM
same,binding result,[33],no binding
